Experimental data from US11473073B2, “Aminopeptidases for protein hydrolyzates” (DUPONT NUTRITION BIOSCIENCES APS, priority 2015, dated 2022).

What was measured:
Format in all cases: biochemical
[1] = test system: soy protein isolate (SPI); assay: Degree of hydrolysis of pre-hydrolysed soy protein isolate; conditions: 50° C., 20 hr
Experimental: (§1) The degree of hydrolyses (DH) describes the relative amount of cleaved peptides bounds compared to an acid hydrolyses of the same amount of protein conducted e.g. in 6 M HCL at ˜120° C. for ˜24 h. The higher the DH can therefore be applied to assess the efficiency of amino acid liberation of a general PepN such as a PepN 1 or a PepN 2 type. The cell free culture broth was concentrated (10 kDa cut-off, Sartorius, Göttingen, Germany) and desalted applying a disposal desalting column (PD10, GE, Munchen, Germany) as described by the manufacturer. As substrates were pre-hydrolysed 10% (w/w) Na-caseinate (DMK, Germany), whey protein isolate (WPI; Arla, Viby, Denmark), soy protein isolate (SPI; SUPRO® 760, DuPont, Brabrand, Denmark) and gluten suspensions were applied. The pre-hydrolysis was conducted with 1% (w/wprotein) of FOODPRO® Alkaline Protease, 1% (w/wprotein) FOODPRO® PNL for the Na-Caseinate, the WPI as well as the SPI suspension. All pre-hydrolyses were conducted at 55° C. for 18 h followed by an inactivation step at 95° C. for 20 min. Each applied PepN 2 has been inactivated at 95 C for 15 min as a control of the elimination of any carryover of amino acids from the culture broth to the final hydrolyses as well as for the sufficient inactivation of the applied endopeptidases. The hydrolyses were conducted in a 96-well micro titer plate format and consisted of 150 μL of the pre-hydrolyzed protein suspension combined with 50 μL of a PepN 2 stock solution as indicated in Table 1 below. The hydrolyses were conducted at 50° C. for 20 hr, subsequently, the hydrolysis were stopped by the addition of 20 μL 2 M TCA (Trichloroacetic acid, Sigma-Aldrich, Schnelldorf, Germany). The efficiency of the amino acid liberation of the PepN 2 types from Neosartorya fischeri and Aspergillus clavatus can be seen in Table 1 (B) and (A). […] For the gluten hydrolyses, an increased DH was noticed in the protein range from 0.02-0.3 mg/mL PepN 2.

[2] = test system: whey protein isolate (WPI); assay: Degree of hydrolysis of pre-hydrolysed whey protein isolate; conditions: 50° C., 20 hr
Experimental: as §1

[3] = test system: gluten; assay: Degree of hydrolysis of pre-hydrolysed gluten; conditions: 50° C., 20 hr
Experimental: as §1

[4] = Product inhibition of H-Ala-pNA hydrolysis by amino acid inhibitor mix; conditions: pH 9.0, 30° C.
Experimental: Sigma cat # D2650). […] […] and proline were dissolved in DMSO. All other amino acids were dissolved in buffer. […] The reaction was started by adding 20 μL substrate. Only one substrate concentration was used per plate.

[5] = test system: peptide WHWLQLKPGQPMY (SEQ ID NO:26); assay: Hydrolysis of proline containing peptide, LC-MS; conditions: peptide 1 mg/mL, aminopeptidase 1 ug/mL, CPB-Buffer, 55° C.; FIG. 5-7
Experimental: The peptide […] (SEQ ID NO:26) was hydrolysed with TRI03 and TRI035. The peptide (1 mg/mL) was incubated with 1 ug/mL of the aminopeptidase in 20 mM CPB-Buffer (20 mM Citric acid, 20 mM Phosphate. 20 mM Boric acid) at 55° C. Aliquots (50 μL) were stopped with 50 rel 5% TFA at the indicated time points and subjected to LC-MS analysis.
Capillary LC-MS/MS analyses were performed using an Agilent 1100 LC system (Agilent Technologies) interfaced to a LTQ Orbitrap Classic hybrid mass spectrometer (Thermo Scientific, Bremen, Germany). Samples were loaded onto a 15 cm Phenomenix Jupiter 4μ Proteo 90A, C4 analytical column. Separation was performed at a flow rate of 16 μL/min using a 10 min gradient of 0-40% Solvent B H2O/CH3CN/HCOOH (50/950/0.65 v/v/v) into the IONMAX® ion source (Thermo Scientific, San Jose). The LTQ Orbitrap Classic instrument was operated in a data-dependent MS/MS mode. The peptide masses were measured by the Orbitrap (MS scans were obtained with a resolution of 60 000 at m/z 400), and up to 2 of the most intense peptide m/z were selected and subjected to fragmentation using CID in the linear ion trap (LTQ). Dynamic exclusion was enabled with a list size of 500 masses, duration of 40 s, and an exclusion mass width of ±10 ppm relative to masses on the list.
The RAW files were accessed with the program Skyline 2.6.0.7176 (MacLean, B., et al., “Skyline: an open source document editor for creating and analyzing targeted proteomics experiments”, Bioinformatics, 2010, 26(7): p. 966-8) which uses the MS1 intensities to build chromatograms (Schilling, B., et al., “Platform-independent and label-free quantitation of proteomic data using MS1 extracted ion chromatograms in skyline: application to protein acetylation and phosphorylation”, Mol Cell Proteomics, 2012. 11(5): p. 202-14). The precursor isotopic import filter was set to a count of three, (M, M+1, and M+2) at a resolution of 60,000 and the most intense charge state was used. Peptide sequences of the substrate as well as cleavage products were typed into Skyline and intensities were calculated in each sample. […]

[6] = test system: Na-caseinate; assay: Degree of hydrolysis of pre-hydrolysed Na-caseinate; conditions: Casein, 50° C., 20 hr
Experimental: as §1

[7] = inactivated enzyme at the highest conc.

B1: TRI035: fungal aminopeptidase type-2 (pepN_2), NCBI XP_001273779 from Aspergillus clavatus NRRL 1 (protein)
chain: MQTFGAFLVSFLAASGLAAANAPGGPGGHGRKLPVNPKTFPNEIRLKDLLHGSQKLEDFAYAYPERNRVFGGQAHLDTVNYLYRELKKTGYYDVYKQPQVHQWTRADQSLTLGGDSIQASTMTYSPSVNVTAPLSLVSKLGCAEGDYSADVKGKIALVSRGECSFAQKSVLSAKAGAVATIVYNNVDGSLAGTLGGATSELGPYSPIIGITLAAGQDLVARLQAAPTEVSLWIDSKVENRTTYNVIAQTKGGDPNNVVALGGHTDSVENGPGINDDGSGVISNLVVAKALTRYSVKNAVRFCFWTAEEFGLLGSNYYVDNLSPAELAKIRLYLNFDMIASPNYALMIYDGDGSAFNLTGPPGSAQIESLFENYYKSIKQGFVPTAFDGRSDYEGFILKGIPAGGVFTGAESLKTEEQARLFGGQAGVALDANYHAKGDNMTNLNHKAFLINSRATAFAVATYANNLSSIPPRNATVVKRESMKWTKREEPHTHGADTGCFASRVKE
modifications: Synthetic peptide with leader sequence
Degree of hydrolysis ([1]; PepN 2 stock 0.02 mg/mL): 11%
Degree of hydrolysis ([1]; PepN 2 stock 0.03 mg/mL): 12%
Degree of hydrolysis ([1]; PepN 2 stock 0.04 mg/mL): 13%
Degree of hydrolysis ([1]; PepN 2 stock 0.05 mg/mL): 14%
Degree of hydrolysis ([1]; PepN 2 stock 0.1 mg/mL): 16%
Degree of hydrolysis ([1]; PepN 2 stock 0.15 mg/mL): 15%
Degree of hydrolysis ([1]; PepN 2 stock 0.2 mg/mL): 17%
Degree of hydrolysis ([1]; PepN 2 stock 0.25 mg/mL): 21%
Degree of hydrolysis ([1]; PepN 2 stock 0.3 mg/mL): 21%
Degree of hydrolysis ([1]; PepN 2 stock 0.35 mg/mL): 21%
Degree of hydrolysis [1, 7]: 6%
Degree of hydrolysis ([2]; PepN 2 stock 0.02 mg/mL): 19%
Degree of hydrolysis ([2]; PepN 2 stock 0.03 mg/mL): 20%
Degree of hydrolysis ([2]; PepN 2 stock 0.04 mg/mL): 21%
Degree of hydrolysis ([2]; PepN 2 stock 0.05 mg/mL): 22%
Degree of hydrolysis ([2]; PepN 2 stock 0.1 mg/mL): 23%
Degree of hydrolysis ([2]; PepN 2 stock 0.15 mg/mL): 27%
Degree of hydrolysis ([2]; PepN 2 stock 0.2 mg/mL): 25%
Degree of hydrolysis ([2]; PepN 2 stock 0.25 mg/mL): 28%
Degree of hydrolysis ([2]; PepN 2 stock 0.3 mg/mL): 29%
Degree of hydrolysis ([2]; PepN 2 stock 0.35 mg/mL): 29%
Degree of hydrolysis [2, 7]: 8%
Degree of hydrolysis ([3]; PepN 2 stock 0.02 mg/mL): 12%
Degree of hydrolysis ([3]; PepN 2 stock 0.03 mg/mL): 14%
Degree of hydrolysis ([3]; PepN 2 stock 0.04 mg/mL): 15%
Degree of hydrolysis ([3]; PepN 2 stock 0.05 mg/mL): 15%
Degree of hydrolysis ([3]; PepN 2 stock 0.1 mg/mL): 17%
Degree of hydrolysis ([3]; PepN 2 stock 0.15 mg/mL): 18%
Degree of hydrolysis ([3]; PepN 2 stock 0.2 mg/mL): 17%
Degree of hydrolysis ([3]; PepN 2 stock 0.25 mg/mL): 19%
Degree of hydrolysis ([3]; PepN 2 stock 0.3 mg/mL): 19%
Degree of hydrolysis ([3]; PepN 2 stock 0.35 mg/mL): 22%
Degree of hydrolysis [3, 7]: 4%
product inhibition compared to TRI063 from A. oryzae [4]: less inhibited by product
hydrolysis of WHWLQLKPGQPMY to KPGQPMY and further down to QPMY [5]: can hydrolyze
Degree of hydrolysis ([6]; PepN 2 stock 0.02 mg/mL): 16%
Degree of hydrolysis ([6]; PepN 2 stock 0.03 mg/mL): 19%
Degree of hydrolysis ([6]; PepN 2 stock 0.04 mg/mL): 19%
Degree of hydrolysis ([6]; PepN 2 stock 0.05 mg/mL): 20%
Degree of hydrolysis ([6]; PepN 2 stock 0.1 mg/mL): 21%
Degree of hydrolysis ([6]; PepN 2 stock 0.15 mg/mL): 23%
Degree of hydrolysis ([6]; PepN 2 stock 0.2 mg/mL): 24%
Degree of hydrolysis ([6]; PepN 2 stock 0.25 mg/mL): 24%
Degree of hydrolysis ([6]; PepN 2 stock 0.3 mg/mL): 24%
Degree of hydrolysis ([6]; PepN 2 stock 0.35 mg/mL): 27%
Degree of hydrolysis [6, 7]: 8%
